Laboratory results taken from PMC8053108, “RPA2 winged-helix domain facilitates UNG-mediated removal of uracil from ssDNA; implications for repair of mutagenic uracil at the replication fork” (Nucleic Acids Research, 2021).

Key:
U10-25* ssDNA substrate = experiment: Uracil excision assay, RPA-coated versus naked ssDNA; type: biochemical; details: 1 μM RPA, 100 nM U10-25* ssDNA; 10 min, 22°C; three independent experiments
Experimental: (§1) 3′-FAM-labelled, PAGE-purified oligonucleotide substrates were from Sigma-Aldrich. Unless otherwise indicated, the substrate (25 nt) harboured uracil at position 10 in a polyC sequence to avoid secondary structures (U10-25*: […]-FAM). Double-stranded substrate was generated by annealing (heating followed by slow cooling) U10-25* to a non-labelled complementary oligo (A16-25: […]). All assays were performed at 22°C in 10 mM Tris–HCl pH 7.5, 50 mM NaCl, 1 mM DTT, 0.1 mM EDTA, 0.5 mg/ml BSA.
(§2) Varying amounts of UNG were then added, and the mixtures incubated for 10 min in a water bath. To avoid unspecific interactions and binding of enzyme and DNA to the assay tube surface, low-DNA binding tubes and excess of BSA was used in all reactions. Reactions were quenched and AP sites cleaved in 10% piperidine at 90°C for 20 min. Samples were dried by vacuum centrifugation and suspended in formamide-containing loading buffer. Product and substrate were separated in 12% PAGE/7M urea–0.5× TBE gels, bands visualised in ChemiDoc™ Imager (Bio-Rad) and quantified by Image Lab software (Bio-Rad). Importantly, all assays in which two parameters were compared (e.g. RPA-coated versus naked substrate or WT versus mutated protein) were performed in parallel with the exact same DNA/protein dilutions.

U10-25* dsDNA substrate = experiment: Uracil excision assay, dsDNA preincubated with RPA-WT or RPA-ΔWH; type: biochemical; details: 100 nM U10-25* dsDNA
Experimental: as §1, §2

B1: UNG-CD: catalytic UNG domain, starting at UNG2 aa 93, lacking the N-terminal RPA-binding helix (protein)
chain: GFGESWKKHLSGEFGKPYFIKLMGFVAEERKHYTVYPPPHQVFTWTQMCDIKDVKVVILGQDPYHGPNQAHGLCFSVQRPVPPPPSLENIYKELSTDIEDFVHPGHGDLSGWAKQGVLLLNAVLTVRAHQANSHKERGWEQFTDAVVSWLNQNSNGLVFLLWGSYAQKKGSAIDRKRHHVLQTAHPSPLSVYRGFFGCRHFSKTNELLQKSGKKPIDWKEL
U10-25* ssDNA substrate
  fold reduced activity with RPA-coated ssDNA compared to naked DNA substrate: 1000 fold
U10-25* dsDNA substrate; 500 nM RPA-WT
  fold increased enzyme concentration to convert similar amounts of substrate in presence of RPA-WT: ~200 fold
U10-25* dsDNA substrate; 500 nM RPA-ΔWH
  fold increased enzyme concentration to convert similar amounts of substrate in presence of RPA-ΔWH: ~50 fold
